{
  "source": "paper PMC5362085",
  "about": "“Differential effects of DEAE negative mode chromatography and gel-filtration chromatography on the charge status of Helicobacter pylori neutrophil-activating protein” (PLoS ONE, 2017)",
  "biological_target": "the molecule itself",
  "test": "native gel or EMSA; native-PAGE (10% gel) of the load (soluble E. coli lysate), unbound, wash and elution fractions of DEAE Sepharose and DEAE Sephadex batch chromatography, 20 mM Tris-HCl, 50 mM NaCl, pH 7.0 to 9.0 at 25°C; unbound fractions more than 90% pure",
  "data": [
    {"protein": "Helicobacter pylori neutrophil-activating protein (natural protein, HP-NAP, product of the napA gene (HP0243) amplified from genomic DNA of H. pylori strain 26695; subunit of approximately 17 kDa; It states no tag and speaks of recombinant HP-NAP in its native form; its own experiments show only an oligomer; also called HP-NAP; recombinant HP-NAP; source: E. coli BL21(DE3) (pET42a-NAP, IPTG); in soluble lysate and DEAE batch chromatography fractions; copies: 12) MKTFEILKHLQADAIVLFMKVHNFHWNVKGTDFFNVHKATEEIYEEFADMFDDLAERIVQLGHHPLVTLSEAIKLTRVKEETKTSFHSKDIFKEILEDYKYLEKEFKELSNTAEKEGDKVTVTYADDQLAKLQKSIWMLQAHLA", "values": [
      {"measurement": "binding result", "result": "binds"}
    ]}
  ]
}
